# Data taken from the nanobody polyreactivity screen of Harvey et al. (2022).
# Assay: yeast display, Sf9 membrane polyspecificity reagent, FACS + sequencing; frameworks hold sequencing errors
# In short: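 Genes from sorted yeast were amplified by colony PCR, read by MiSeq 2 × 250 sequencing and filtered on CDR length. These cells carried a synthetic nanobody library in Saccharomyces cerevisiae BJ5465 and were sorted by FACS into low and high (top ~1%) gates on anti-HA and streptavidin fluorescence. Polyreactivity is labelled according to the gate of origin.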
row,Sequence,polyreactivity (PSR sort gate)
1,QVQLVESGGGLVQAGGSLRFSCAASRLTFYWYAMGWYRQPPGKERELVAGISWSGGSTYADSVKGRFTITRDNAKNTVYLQLNSLKPEDTAVYYCAADTYYYRGQSYYYWGQGTEVTVSS,high polyreactivity
2,QVQLVESGGGLVQAGGSLRLSCSASGRTFSWYAMGWYRQAPGKERELVAAISWSGGSTYYADSVKGRFTISRDNAKNTVYLQMNSLKPEDTAVYYCNAVGRPLRGYDYWGQGTQVTVSS,high polyreactivity
3,QVQLVESGGGLVQAGGSLRLSCAASGRTFERYAMGWYRQAPGKERELVAAISSIGGSTYYADSVKGRFTISRDNAKNTVYLQMNSLKPEDTAVYYCADSVFYYASRYDYWGQGTKVTVSS,low polyreactivity
4,QVQLVESGGGLVQAGGSLRLSCAASGSTSDLYAMGWYRQAPGKERELVAAITWSGDSTYYADSVKGRFTISRDNAKNTVYLQMNSLKPEDTAVYYCNAEYYDYFDYESDYWGQGTQVTVSS,low polyreactivity
5,QVQLVESGGVLVQAGGSLRLSCAASGFIFVRYAMGWYRQAPGKERELVAAITSSDSNTNYADSVKGRFTISRDNAKNTVYLQMNSLNPEDTAVYYCNARIYTRRYVPHYGFNYWGQGTQVTVSS,low polyreactivity
6,QVHLVESGGGLVQAGGSLRLSCAASGRTFHYYAMGWYRQAPGKERELVAAISVSGGSTYYADSVKGRFTISRDNAKNTVYLQMNSLKPEDNAVYYCAADDYLVEHDYWGQGTQVTVSS,low polyreactivity
7,QVQLVESGGGLVQAGGSLRLSCAASGFIFKYYAMGWYRQAPGKERELVAAISRSGGSTYYADSVKGRFTISRDNAKNTVYLLMNSLKPEDTAVYYCAADSSWVHEYYYWGQGTQVTVSS,high polyreactivity
8,QVQLVESGGGLVQAGGSLRLSCAASGFISPKYGMGWYRQAPGKERELVAAITPSDGSTSYADSVKGRFTISRDNAKNTVYLQMNSLKPEDTAVYYCNKSRYKSYSYDYWGQGTQVTVSS,high polyreactivity
9,QVQLLESGGGLVQAGGSLRLSCAASGRIFNYNAMGWYRQAPGKERELVAAISWDGGSTYYADSVKGRFTISRDNAKNTVYLQMNSLKPEDTAVYYCAARGGSRRFQSQAYSLPRYDYWGQGTQVTVSS,high polyreactivity
10,QVKLVESGGGLVQAGGSLRLSCAASGITFVLYAMRWYRQAPGKERELVASITWDATDTYYADSVKGRFTISRDNAKNTVYLQMNSLKPEDTAVYYCNAAYFNYWWLEYDYWGQGTQVTVSS,high polyreactivity
11,QVQLVETGGGLVQAGGSLHLSCAASGIIIYANDMGWYRQAPGKERELVAGISRNGGRTYYADSVKGRFTISRDNAKNTVYLQMNSLKPEDTAVYYCAARGSYTSIFDYWGQGTQVTVSS,high polyreactivity
12,QVQLVESGGGLVQAGGSLRLSFAASGFIFDKYAMGWYRQAPGKERELVATITSGGSTYYADSVKGRFTISRDNAKNYVYLQMYSLKREDTADYYCAALDYGYRWYRYYYWGQGSQVTVSS,high polyreactivity
13,QVQLVESGGGLVQAGGILRLSCAASGYTFYFYAMGWYRQAPGKERELVAAITGGGTTSYADSVKGRFTISRDNAKNTVYLQMNSLKPEDTAVYYCNVLFADKSDYWGQGTQVTVSS,low polyreactivity
14,QVQLVESGVGLVQARGSLRLSSASSGSILSTYAMGCYRQAPGKERELVASISSNAGSTYYADSVKGRFTISRDNAKNTVYLQMNSLKPEDTAVYYCNVKYKYYSPNYDYWGEGTQVTVSS,low polyreactivity
15,QVQLVESGGGLVQAGGSLRLSCSASGRIFPRNAMGWYRQAPGKERHLVAAISQSGTSTYYADSVKGRFTISRDNAQKTVYLQMNSLKREDTAVYYCAASGWDHVIVEYDYWGEGTQVTVSS,low polyreactivity
16,QVQLVESGGGLVQAGGSLRLSCAPSGIIFYYYAMGWYRQAPGKERELVAAITGTGSRTYYADSVKGRFTISRDNAKNTVYLQMNSLKPEDTAVYYCNARSFATGSKVPARGYWGQGTQVTVSS,high polyreactivity
17,QVQLVESGGGLVQAGGSLRLSCAASGSIFWFNAMGWYRQAPGKERELVAAISTGGGTNYADSVKGRFTISRDNAKNTLYLKMNSLKPEDTAVYYCATYKVSRYISYDYWGQGPQVTVSS,low polyreactivity
